# Test results: patent publication US11845989B2, “Treatment of ophthalmic conditions with angiopoietin-like 7 (ANGPTL7) inhibitors” (Regeneron Pharmaceuticals, Inc., priority 2019, dated 2023)
# Experiments:
# [1] = system: mouse eyes; test: Intracameral injection of ANGPTL7 protein in mice, IOP measured over time; format: in vivo
# Procedure: (§1) Isoflurane anesthetized IOPs were measured as previously described. For IOP measurements, mice were anesthetized before IOP was measured in both eyes using a TonoLab rebound tonometer (Colonial Medical Supply, Franconia, N H). IOP measurements for both eyes were completed in 3-5 minutes. IOP in each eye was measured before start of Angptl7 injections and every day afterwards for six days.
# A 33-gauge needle with a glass microsyringe (5-4 volume) (Hamilton Company) was used. Before and during injection, mice were anesthetized with isoflurane (2.5%) containing oxygen (0.8 L/min). For topical anesthesia, both eyes received one to two drops of 0.5% proparacaine HCl (Akorn, Inc.). Each eye was proptosed and the needle was inserted through the cornea just above the limbal region and into the anterior chamber at an angle parallel to the cornea, taking care to avoid touching the iris, anterior lens capsule epithelium, or corneal endothelium. Up to 1 μL of ANGPTL7 protein (catalog #4960-AN-025; R&D Systems, Minneapolis, MN) or PBS was injected slowly (over a 30-second period). The needle was then withdrawn. The procedure was performed on both eyes of each animal. Only one injection was administered at day 0.
# [2] = system: mouse eyes; test: Intravitreal injection of ANGPTL7 protein in mice, IOP measured over time; format: in vivo
# Procedure: as §1
# A 33-gauge needle with a glass microsyringe (5-4 volume; Hamilton Company) was used. The eye was proptosed, and the needle was inserted through the equatorial sclera and inserted into the vitreous chamber at an angle of approximately 45 degrees, taking care to avoid touching the posterior part of the lens or the retina. ANGPTL7 protein (catalog #4960-AN-025; R&D Systems, Minneapolis, MN) or PBS (1 μL) was injected into the vitreous over the course of 1 minute. The needle was then left in place for a further 45 seconds (to facilitate mixing), before being rapidly withdrawn. Only one injection was administered at day 0.
molecule,measurement,setting,value
"ANGPTL7 protein: ANGPTL7 protein (catalog #4960-AN-025; R&D Systems), murine Angptl7 protein injected into mouse eyes (protein, UniProt Q8R1Q3 22-337, looked up) Angiopoietin-related protein 7: QKPHKRKTQLKAAGCCEEMRELKAQVANLSSLLGELSRKQESDWVSVVMQVMELESSSKHMESRLSTAESKYSEMNNQIDIMQLQAAQTVTQTSADAIYDCSSLYQKNYRISGVYKLPPDEFLGSPELEVFCDMETSGGGWTIIQRRKSGLVSFYQDWRQYKQGFGSIRGDFWLGNEHIHRLTRQPSRLRVELEDWEGNARYAEYSYFALGNELNSYRLFLGNYSGNVGKDALLYHNNTVFSTKDKDNDNCLDKCAQLRKGGYWYNCCTDSNLNGVYYRLGEHRKHMDGISWYGWHGANYSLKRVEMKIRPEAFKP",elevation of IOP,"[1]; mice, single intracameral injection at day 0, after an initial drop, starting on day 3 until end of experiment on day 7",2-5 mmHg
same,IOP in Angptl7-treated eyes compared to control eyes,"[1]; mouse eyes, intracameral route, after an initial drop (FIG. 6B)",elevated
same,elevation of IOP,"[2]; mice, single intravitreal injection at day 0, after an initial drop, starting on day 4 until end of experiment on day 7",4-5 mmHg
same,elevation of IOP compared to baseline,"[2]; mice, single intravitreal injection at day 0, starting on day 4 until day 7",22-25%
same,IOP in Angptl7-treated eyes compared to control eyes,"[2]; mouse eyes, intravitreal route, after an initial drop (FIG. 6A)",elevated
